From US20190315845A1 (ANNEXON, published 2019)
Where two headings read alike, the source gives them in different places.

Key:
mouse C1q [1] = target: T1, mouse C1q (mouse, UniProt P98086 23-245; P14106 26-253; Q02105 30-246); assay: competition ELISA, plate-coated mouse C1q; competitor biotinylated chimeric M1 (0.03 µg/ml); IC50 normalised to chimeric M1 (reference itself)
T1 construct: Purified mouse C1q protein; also called mC1q
Procedure: (§1) The binding of humanized M1 variants to mouse C1q was analyzed by competition ELISA on four selected antibodies, VH1/Vκ1, VH3/Vκ1, VH3/Vκ4 and VH4/Vκ3. An irrelevant IgG4 (S241P L248E) antibody was also included as a binding control. A three-fold dilution series of test antibody (100 μg/ml to 0.046 μg/ml) was premixed with a constant concentration of biotinylated chimeric M1 antibody (0.03 μg/ml, final concentration) before incubating for 1 hour at 37° C. with shaking on plates pre-coated with mouse C1q at 5.0 μg/ml. The binding of chimeric M1 antibody was detected with streptavidin-peroxidase conjugate (Sigma-Aldrich cat. no. S5512) and TMB substrate (Thermo Scientific cat. no. 34029). The reaction was stopped with 1M HCl, absorbance read at 450 nm on a Dynex Technologies MRX TC II plate reader and the binding curves plotted.
(§2) The binding curves were used to calculate IC₅₀ values for each antibody normalized to the IC₅₀ of chimeric M1 (Table 2).

human C1q [2] = target: T2, human C1q (human, UniProt P02745 23-245; P02746 28-253; P02747 29-245); assay: competition ELISA on plate-bound human C1q against biotinylated mouse M1 antibody (0.02 µg/ml); bound biotin-M1 read as OD450
T2 construct: Purified human C1q protein (plate-coated in ELISA, ligand or analyte in SPR, in human serum in CH50); also called hC1q; complement factor C1q
Description: (§3) FIG. 4A, FIG. 4B, FIG. 4C, and FIG. 4D depicts competition ELISA assays for human C1q. A dilution series of purified humanized anti-C1q antibodies were competed against a fixed concentration of biotinylated monoclonal antibody M1 for binding to human C1q. Bound biotinylated M1 antibody was detected using streptavidin-peroxidase conjugate and TMB substrate. FIG. 4A depicts the results with the humanized antibodies VH1/Vκ1, VH1/Vκ2, and VH1/Vκ3. FIG. 4B depicts the results with the humanized antibodies VH1/Vκ4, VH2/Vκ1, VH2/Vκ2, VH2/Vκ3, and VH2/Vκ4. FIG. 4C depicts the results with the humanized antibodies VH3/Vκ1, VH3/Vκ2, VH3/Vκ3, and VH3/Vκ4. FIG. 4D depicts the results with the humanized antibodies VH4/Vκ1, VH4/Vκ2, […], and VH4/Vκ4.
(§4) The binding of humanized M1 variants to human C1q was analyzed by competition ELISA. A three-fold dilution series of test antibody (5 μg/ml to 0.002 μg/ml) was premixed with a constant concentration of biotinylated mouse M1 antibody (0.02 μg/ml, final concentration) before incubating for 1 hour at 37° C. with shaking on plates pre-coated with human C1q at 1.0 μg/ml. The binding of mouse M1 antibody was detected with streptavidin-peroxidase conjugate (Sigma-Aldrich cat. no. 55512) and TMB (3,3′,5,5′-tetramethylbenzidine) substrate (Thermo Scientific cat. no. 34029). The reaction was stopped with 1M HCl, absorbance read at 450 nm on a Dynex Technologies MRX TC II plate reader and the binding curves plotted.

mouse C1q [3] = target: T1, mouse C1q; assay: competition ELISA on plate-bound mouse C1q against biotinylated chimeric M1 antibody (0.03 µg/ml); bound biotin-chimeric M1 read as OD450
Procedure: as §1, §2

human C1q [4] = target: T2, human C1q; assay: competition ELISA on plate-bound human C1q against biotinylated mouse M1 antibody (0.02 µg/ml); bound biotin-M1 read as OD450; remark: listed apart in the source
Description: as §3, §4

human C1q [5] = target: T2, human C1q; assay: competition ELISA, plate-coated human C1q; competitor biotinylated mouse M1 (0.02 µg/ml); IC50 normalised to chimeric M1 (reference itself)
Procedure: as §4
The binding curves were used to calculate IC₅₀ values (concentration of test antibody that inhibits labelled competitor binding by 50%) for each antibody normalized to the IC₅₀ of chimeric M1 and antibody yields from NS0 transfectants were also compared (Table 1).

human C1q [6] = target: T2, human C1q; assay: competition ELISA on plate-bound human C1q against biotinylated mouse M1 antibody (0.02 µg/ml); bound biotin-M1 read as OD450; remark: listed apart in the source
Description: as §3, §4

human C1q [7] = target: T2, human C1q; assay: as above; remark: listed apart in the source
Description: as §3, §4

human C1q [8] = target: T2, human C1q; assay: SPR Biacore T200, 1:1 model; Fab immobilised (ligand), hC1q analyte
human C1q [9] = target: T2, human C1q; assay: SPR Biacore T200, heterogeneous ligand model, KD2; hC1q immobilised (ligand), Fab analyte
Procedure: (§5) Due to concerns about stability, two chips were prepared; one with hC1q and mC1q (Chip All) as ligands and one with IgG and Fab (Chip A13) as ligands Immobilization for m/h C1q was carried out at a protein concentration of 5 μg/ml in 10 mM acetate buffer pH 5.5, whereas immobilization for IgG and Fab was carried out at a protein concentration of 0.5-2 μg/ml in 10 mM acetate buffer pH 5.0, both on a CMS Series S sensor chip (Biacore).
(§6) The kinetic parameters for both the IgG and Fab interactions with hC1q were in the low picomolar range (Table 6 for 1-to-1 model and Table 7 for the heterogeneous model). In order to avoid avidity, hC1q was initially used as the ligand, however this limited the analysis to single cycle kinetics and the use of more complex models, for example, heterogeneous ligand binding models (Equation 3), that may represent the different forms of hC1q structure that were associated with chemical coupling of a multi-subunit protein to a surface. When hC1q was used as the analyte both IgG and Fab were immobilized at the lowest concentrations possible to avoid avidity. The data was analyzed using a 1-to-1 model and a more complex bivalent analyte model (Equation 4). […] It should be noted that the dissociation rate was too slow to measure accurately with this technique. […]

mouse C1q [10] = target: T1, mouse C1q; assay: SPR Biacore T200, 1:1 model; Fab immobilised (ligand), mC1q analyte; analysis 2
human C1q [11] = target: T2, human C1q; assay: SPR Biacore T200, heterogeneous ligand model, ka2; hC1q immobilised (ligand), Fab analyte
Procedure: as §5, §6

human C1q [12] = target: T2, human C1q; assay: SPR Biacore T200, heterogeneous ligand model, kd2; hC1q immobilised (ligand), Fab analyte
Procedure: as §5, §6

mouse C1q [13] = target: T1, mouse C1q; assay: SPR Biacore T200, 1:1 model; mC1q immobilised (ligand), Fab analyte; analysis 1
mouse C1q [14] = target: T1, mouse C1q; assay: SPR Biacore T200, 1:1 model; Fab immobilised (ligand), mC1q analyte; analysis 1
mouse C1q [15] = target: T1, mouse C1q; assay: SPR Biacore T200, 1:1 model; mC1q immobilised (ligand), Fab analyte; mean of 2 independent analyses
Procedure: as §5
(§7) Both C1q complexes were immobilized based on concerns over avidity (i.e., two immobilized antibodies binding C1q), and the very high levels of NSB observed using mC1q and to a lesser extent hC1q to the CM5 surface (charge mediated estimated C1q: pI 8-9). Single cycle kinetics (SCK) were used initially to derive estimated kinetic constants due to uncertainty over the stability of the C1q complex and the regeneration conditions. Full kinetic analysis was performed after SCK. The ligand stability control injections performed during the kinetic run indicated either the regeneration conditions used were inactivating the ligand, or the ligand itself was unstable at 25° C. during the 48 hours required for kinetic analysis.
(§8) The association phase was monitored for 500 seconds to allow some of the higher concentrations of analyte to reach steady state. In order to observe a sufficient signal decrease (>10%) during the dissociation phase of the kinetic cycle, dissociation was measured for up to 10,800 seconds to allow sufficient dissociation to occur for accurate assessment of the kinetics. The signal from the reference channel Fₑ1 was subtracted from that of Fₑ2, Fₑ3, and Fₑ4.

mouse C1q [16] = target: T1, mouse C1q; assay: SPR Biacore T200, 1:1 model; mC1q immobilised (ligand), Fab analyte; analysis 2
Procedure: as §5, §7, §8

human C1q [17] = target: T2, human C1q; assay: SPR Biacore T200, heterogeneous ligand model, kd1; hC1q immobilised (ligand), Fab analyte
human C1q [18] = target: T2, human C1q; assay: SPR Biacore T200, heterogeneous ligand model, ka1; hC1q immobilised (ligand), Fab analyte
Procedure: as §5, §6

human C1q [19] = target: T2, human C1q; assay: SPR Biacore T200, 1:1 model, single cycle kinetics; hC1q immobilised (ligand), Fab analyte
human C1q [20] = target: T2, human C1q; assay: SPR Biacore T200, heterogeneous ligand model, KD1; hC1q immobilised (ligand), Fab analyte
Procedure: as §5, §6

mouse C1q [21] = target: T1, mouse C1q; assay: SPR Biacore T200, 1:1 model; Fab immobilised (ligand), mC1q analyte; mean of 2 independent analyses
Procedure: as §5, §8

T2 sequence (P02745 23-245 limits assumed, chain 1 of 3): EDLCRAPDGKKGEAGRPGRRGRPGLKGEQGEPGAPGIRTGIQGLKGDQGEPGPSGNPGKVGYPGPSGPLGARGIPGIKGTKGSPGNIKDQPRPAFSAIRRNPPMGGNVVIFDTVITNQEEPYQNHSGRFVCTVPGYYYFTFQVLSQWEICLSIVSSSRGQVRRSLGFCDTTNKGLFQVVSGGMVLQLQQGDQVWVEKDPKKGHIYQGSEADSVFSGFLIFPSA
T2 sequence (P02746 28-253 limits assumed, chain 2 of 3): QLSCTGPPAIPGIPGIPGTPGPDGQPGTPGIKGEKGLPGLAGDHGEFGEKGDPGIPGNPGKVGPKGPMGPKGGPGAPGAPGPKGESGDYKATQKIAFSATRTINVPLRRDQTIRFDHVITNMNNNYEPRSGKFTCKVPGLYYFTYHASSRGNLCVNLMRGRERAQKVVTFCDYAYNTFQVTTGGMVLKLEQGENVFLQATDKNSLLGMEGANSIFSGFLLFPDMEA
T2 sequence (P02747 29-245 limits assumed, chain 3 of 3): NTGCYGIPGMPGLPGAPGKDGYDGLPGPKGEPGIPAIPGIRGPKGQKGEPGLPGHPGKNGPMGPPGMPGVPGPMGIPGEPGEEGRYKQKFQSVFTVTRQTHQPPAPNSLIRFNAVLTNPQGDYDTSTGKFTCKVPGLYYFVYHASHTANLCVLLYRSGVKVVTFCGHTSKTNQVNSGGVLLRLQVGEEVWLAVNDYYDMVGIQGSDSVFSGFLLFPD
T1 sequence (P98086 23-245 limits assumed, chain 1 of 3): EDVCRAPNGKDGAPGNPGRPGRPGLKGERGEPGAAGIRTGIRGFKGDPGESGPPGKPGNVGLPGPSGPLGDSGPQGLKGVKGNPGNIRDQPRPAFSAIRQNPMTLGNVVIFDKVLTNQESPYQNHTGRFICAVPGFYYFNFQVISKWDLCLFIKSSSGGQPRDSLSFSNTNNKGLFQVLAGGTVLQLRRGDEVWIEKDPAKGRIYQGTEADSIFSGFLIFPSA
T1 sequence (P14106 26-253 limits assumed, chain 2 of 3): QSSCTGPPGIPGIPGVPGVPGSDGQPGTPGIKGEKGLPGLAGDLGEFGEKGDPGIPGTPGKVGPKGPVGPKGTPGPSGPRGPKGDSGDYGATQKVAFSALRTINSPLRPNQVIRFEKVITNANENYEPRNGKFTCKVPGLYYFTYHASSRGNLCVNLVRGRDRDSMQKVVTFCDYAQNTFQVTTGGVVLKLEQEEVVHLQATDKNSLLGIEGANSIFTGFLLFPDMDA
T1 sequence (Q02105 30-246 limits assumed, chain 3 of 3): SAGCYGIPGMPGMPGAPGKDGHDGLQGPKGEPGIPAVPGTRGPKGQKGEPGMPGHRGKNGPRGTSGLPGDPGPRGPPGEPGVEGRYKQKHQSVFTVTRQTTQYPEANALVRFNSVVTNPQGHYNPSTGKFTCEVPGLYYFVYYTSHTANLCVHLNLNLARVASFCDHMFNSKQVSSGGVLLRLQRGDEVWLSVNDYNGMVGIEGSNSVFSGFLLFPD

B1: chimeric M1 antibody (antibody, human IgG4)
heavy: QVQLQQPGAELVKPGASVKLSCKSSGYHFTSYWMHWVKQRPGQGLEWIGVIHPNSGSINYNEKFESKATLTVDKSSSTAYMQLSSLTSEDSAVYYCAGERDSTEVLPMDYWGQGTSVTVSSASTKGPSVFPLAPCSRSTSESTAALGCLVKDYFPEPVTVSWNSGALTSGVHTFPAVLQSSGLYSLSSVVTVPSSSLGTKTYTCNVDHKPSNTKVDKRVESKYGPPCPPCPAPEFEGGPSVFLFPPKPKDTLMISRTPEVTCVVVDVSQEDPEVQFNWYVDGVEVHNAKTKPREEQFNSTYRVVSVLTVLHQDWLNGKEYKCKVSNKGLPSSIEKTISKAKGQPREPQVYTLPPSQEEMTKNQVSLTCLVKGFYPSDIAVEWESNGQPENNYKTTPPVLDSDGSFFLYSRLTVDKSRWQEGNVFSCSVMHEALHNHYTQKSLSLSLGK
light: DVQITQSPSYLAASPGETITINCRASKSINKYLAWYQEKPGKTNKLLIYSGSTLQSGIPSRFSGSGSGTDFTLTISSLEPEDFAMYYCQQHNEYPLTFGAGTKLELK
notes: Murine M1 V regions with human IgG4 (S241P L248E) and human kappa constant regions, expressed in NS0; also called 3E2; not shown: human kappa light chain constant region
Mouse C1q [1]
  Relative IC50: 1 ratio to chimeric M1
Human C1q [2]
  IC50 (read off the curve): ~0.3 µg/mL
Mouse C1q [3]
  IC50 (read off the curve): ~3 µg/mL
Human C1q [4]
  IC50 (read off the curve): ~0.3 µg/mL
Human C1q [5]
  Relative IC50: 1 ratio to chimeric M1
Human C1q [6]
  IC50 (read off the curve): ~0.3 µg/mL
Human C1q [7]
  IC50 (read off the curve): ~0.3 µg/mL

B2: Fab fragment of humanized anti-C1q antibody VH3/Vκ3 (Fab)
heavy: QVQLVQSGAELKKPGASVKVSCKSSGYHFTSYWMHWVKQAPGQGLEWIGVIHPNSGSINYNEKFESRVTITVDKSTSTAYMELSSLRSEDTAVYYCAGERDSTEVLPMDYWGQGTTVTVSS
light: DVQITQSPSSLSASLGERATINCRASKSINKYLAWYQQKPGKAPKLLIYSGSTLQSGIPARFSGSGSGTDFTLTISSLEPEDFAMYYCQQHNEYPLTFGQGTKLEIK
notes: also called Fab VH3/Vκ3; Fab-VH3/Vκ3; not shown: CH1 part of the human IgG4 (S241P L248E) constant region left after digestion of the IgG with a Fab Micro Preparation Ki; human kappa light chain constant region
Human C1q [8]
  Kd: 0.0086 nM
  koff: 9.1e-06 s⁻¹
  kon: 1.1e+06 M⁻¹ s⁻¹
Human C1q [9]
  Kd: 3.4 nM
Mouse C1q [10]
  Kd: 121 nM
Human C1q [11]
  kon: 18000 M⁻¹ s⁻¹
Human C1q [12]
  koff: 6.3e-08 s⁻¹
Mouse C1q [13]
  Kd: 748 nM
  koff: 0.0046 s⁻¹
  kon: 6230 M⁻¹ s⁻¹
Mouse C1q [14]
  Kd: 126 nM
  koff: 0.056 s⁻¹
  kon: 450000 M⁻¹ s⁻¹
Mouse C1q [15]
  Kd: 677 nM
  koff: 0.0043 s⁻¹
  kon: 6500 M⁻¹ s⁻¹
Mouse C1q [16]
  Kd: 607 nM
  koff: 0.0041 s⁻¹
  kon: 6900 M⁻¹ s⁻¹
Human C1q [17]
  koff: 2.3e-05 s⁻¹
Human C1q [18]
  kon: 130000 M⁻¹ s⁻¹
Human C1q [19]
  Kd: < 0.192 nM
  koff: < 1e-05 s⁻¹
  kon: 52000 M⁻¹ s⁻¹
Human C1q [20]
  Kd: 175 nM
Mouse C1q [21]
  Kd: 123 nM
  koff: 0.032 s⁻¹
  kon: 310000 M⁻¹ s⁻¹
